Assay results from publication doi:10.1101/2021.04.21.440744 (bioRxiv, 2021).

Target: the molecule itself
Test: […]

B1: Ebola virus transmembrane glycoprotein GP (natural protein)
chain: IPLGVIHNSTLQVSDVDKLVCRDKLSSTNQLRSVGLNLEGNGVATDVPSATKRWGFRSGVPPKVVNYEAGEWAENCYNLEIKKPDGSECLPAAPDGIRGFPRCRYVHKVSGTGPCAGDFAFHKEGAFFLYDRLASTVIYRGTTFAEGVVAFLILPQAKKDFFSSHPLREPVNATEDPSSGYYSTTIRYQATGFGTNETEYLFEVDNLTYVQLESRFTPQFLLQLNETIYTSGKRSNTTGKLIWKVNPEIDTTIGEWAFWETKKNLTRKIRSEELSFTVVSNGAKNISGQSPARTSSDPGTNTTTEDHKIMASENSSAMVQVHSQGREAAVSHLTTLATISTSPQSLTTKPGPDNSTHNTPVYKLDISEATQVEQHHRRTDNDSTASDTPSATTAAGPPKAENTNTSKSTDFLDPATTTSPQNHSETAGNNNTHHQDTGEESASSGKLGLITNTIAGVAGLITGGRRTRREAIVNAQPKCNPNLHYWTTQDEGAAIGLAWIPYFGPAAEGIYIEGLMHNQDGLICGLRQLANETTQALQLFLRATTELRTFSILNRKAIDFLLQRWGGTCHILGPDCCIEPHDWTKNITDKIDQIIHDFVDKTLPDQGDNDNWWTGWRQWIPAGIGVTGVIIAVIALFCICKFVF
stoichiometry N: 3
